# According to PMC9482650, “Quantitative fragmentomics allow affinity mapping of interactomes” (Nature Communications, 2022):
# Biological target: O43166
# Experiment: holdup assay
# Design: key: below the threshold = too weak to quantify, mostly under pKd 3.1 to 4
# Settings: plain residues with an end cap or a label only (N-terminal biotin on a linker: ttds)
row,Binder,pKd
1,"RHTTSTETAV [HPV30-E6, P36809]",below the threshold
2,"SSLQSLETSV [ATP2B4, P23634]",below the threshold
3,"QRQARSETLV [HPV59-E6, Q81964]",below the threshold

# Biological target: Q70Z35
# Experiment: holdup assay
# Design: key: below the threshold = too weak to quantify, mostly under pKd 3.1 to 4
# Settings: plain residues with an end cap or a label only (N-terminal biotin on a linker: ttds)
row,Binder,pKd
1,"RHTTSTETAV [HPV30-E6, P36809]",below the threshold
2,"SSLQSLETSV [ATP2B4, P23634]",below the threshold
3,"QRQARSETLV [HPV59-E6, Q81964]",below the threshold

# Biological target: Q8IUC4
# Experiment: holdup assay
# Design: key: below the threshold = too weak to quantify, mostly under pKd 3.1 to 4
# Settings: plain residues with an end cap or a label only (N-terminal biotin on a linker: ttds)
row,Binder,pKd
1,"RHTTSTETAV [HPV30-E6, P36809]",below the threshold
2,"SSLQSLETSV [ATP2B4, P23634]",below the threshold
3,"QRQARSETLV [HPV59-E6, Q81964]",below the threshold

# Biological target: Q92614
# Experiment: holdup assay
# Design: key: below the threshold = too weak to quantify, mostly under pKd 3.1 to 4
# Settings: plain residues with an end cap or a label only (N-terminal biotin on a linker: ttds)
row,Binder,pKd
1,"RHTTSTETAV [HPV30-E6, P36809]",below the threshold
2,"SSLQSLETSV [ATP2B4, P23634]",below the threshold
3,"QRQARSETLV [HPV59-E6, Q81964]",below the threshold

# Biological target: O00560
# Experiment: holdup assay
# Design: key: below the threshold = too weak to quantify, mostly under pKd 3.1 to 4
# Settings: plain residues with an end cap or a label only (N-terminal biotin on a linker: ttds)
row,Binder,pKd
1,"RHTTSTETAV [HPV30-E6, P36809]",below the threshold
2,"SSLQSLETSV [ATP2B4, P23634]",below the threshold
3,"QRQARSETLV [HPV59-E6, Q81964]",below the threshold

# Biological target: O75970
# Experiment: holdup assay
# Design: key: below the threshold = too weak to quantify, mostly under pKd 3.1 to 4
# Settings: plain residues with an end cap or a label only (N-terminal biotin on a linker: ttds)
row,Binder,pKd
1,"RHTTSTETAV [HPV30-E6, P36809]",below the threshold
2,"SSLQSLETSV [ATP2B4, P23634]",below the threshold
3,"QRQARSETLV [HPV59-E6, Q81964]",below the threshold

# Biological target: Q13368
# Experiment: holdup assay
# Design: key: below the threshold = too weak to quantify, mostly under pKd 3.1 to 4
# Settings: plain residues with an end cap or a label only (N-terminal biotin on a linker: ttds)
row,Binder,pKd
1,"RHTTSTETAV [HPV30-E6, P36809]",below the threshold
2,"SSLQSLETSV [ATP2B4, P23634]",below the threshold
3,"QRQARSETLV [HPV59-E6, Q81964]",below the threshold

# Biological target: Q9NR12
# Experiment: holdup assay
# Design: key: below the threshold = too weak to quantify, mostly under pKd 3.1 to 4
# Settings: plain residues with an end cap or a label only (N-terminal biotin on a linker: ttds)
row,Binder,pKd
1,"RHTTSTETAV [HPV30-E6, P36809]",below the threshold
2,"SSLQSLETSV [ATP2B4, P23634]",below the threshold
3,"QRQARSETLV [HPV59-E6, Q81964]",below the threshold

# Biological target: Q8TDM6
# Experiment: holdup assay
# Design: key: below the threshold = too weak to quantify, mostly under pKd 3.1 to 4
# Settings: plain residues with an end cap or a label only (N-terminal biotin on a linker: ttds)
row,Binder,pKd
1,"RHTTSTETAV [HPV30-E6, P36809]",below the threshold
2,"SSLQSLETSV [ATP2B4, P23634]",below the threshold
3,"QRQARSETLV [HPV59-E6, Q81964]",below the threshold

# Biological target: Q5TCQ9
# Experiment: holdup assay
# Design: key: below the threshold = too weak to quantify, mostly under pKd 3.1 to 4
# Settings: plain residues with an end cap or a label only (N-terminal biotin on a linker: ttds)
row,Binder,pKd
1,"RHTTSTETAV [HPV30-E6, P36809]",below the threshold
2,"SSLQSLETSV [ATP2B4, P23634]",below the threshold
3,"QRQARSETLV [HPV59-E6, Q81964]",below the threshold

# Biological target: Q96JY6
# Experiment: holdup assay
# Design: key: below the threshold = too weak to quantify, mostly under pKd 3.1 to 4
# Settings: plain residues with an end cap or a label only (N-terminal biotin on a linker: ttds)
row,Binder,pKd
1,"RHTTSTETAV [HPV30-E6, P36809]",below the threshold
2,"SSLQSLETSV [ATP2B4, P23634]",below the threshold
3,"QRQARSETLV [HPV59-E6, Q81964]",below the threshold

# Biological target: O00233
# Experiment: holdup assay
# Design: key: below the threshold = too weak to quantify, mostly under pKd 3.1 to 4
# Settings: plain residues with an end cap or a label only (N-terminal biotin on a linker: ttds)
row,Binder,pKd
1,"RHTTSTETAV [HPV30-E6, P36809]",below the threshold
2,"SSLQSLETSV [ATP2B4, P23634]",below the threshold
3,"QRQARSETLV [HPV59-E6, Q81964]",below the threshold

# Biological target: Q96FS4
# Experiment: holdup assay
# Design: key: below the threshold = too weak to quantify, mostly under pKd 3.1 to 4
# Settings: plain residues with an end cap or a label only (N-terminal biotin on a linker: ttds)
row,Binder,pKd
1,"RHTTSTETAV [HPV30-E6, P36809]",below the threshold
2,"SSLQSLETSV [ATP2B4, P23634]",below the threshold
3,"QRQARSETLV [HPV59-E6, Q81964]",below the threshold

# Biological target: Q9H190
# Experiment: holdup assay
# Design: key: below the threshold = too weak to quantify, mostly under pKd 3.1 to 4
# Settings: plain residues with an end cap or a label only (N-terminal biotin on a linker: ttds)
row,Binder,pKd
1,"RHTTSTETAV [HPV30-E6, P36809]",below the threshold
2,"SSLQSLETSV [ATP2B4, P23634]",below the threshold
3,"QRQARSETLV [HPV59-E6, Q81964]",below the threshold

# Biological target: Q9Y3R0
# Experiment: holdup assay
# Design: key: below the threshold = too weak to quantify, mostly under pKd 3.1 to 4
# Settings: plain residues with an end cap or a label only (N-terminal biotin on a linker: ttds)
row,Binder,pKd
1,"RHTTSTETAV [HPV30-E6, P36809]",below the threshold
2,"SSLQSLETSV [ATP2B4, P23634]",below the threshold
3,"QRQARSETLV [HPV59-E6, Q81964]",below the threshold

# Biological target: Q12923
# Experiment: holdup assay
# Design: key: below the threshold = too weak to quantify, mostly under pKd 3.1 to 4
# Settings: plain residues with an end cap or a label only (N-terminal biotin on a linker: ttds)
row,Binder,pKd
1,"RHTTSTETAV [HPV30-E6, P36809]",below the threshold
2,"SSLQSLETSV [ATP2B4, P23634]",below the threshold
3,"QRQARSETLV [HPV59-E6, Q81964]",below the threshold

# Biological target: O60759
# Experiment: holdup assay
# Design: key: below the threshold = too weak to quantify, mostly under pKd 3.1 to 4
# Settings: plain residues with an end cap or a label only (N-terminal biotin on a linker: ttds)
row,Binder,pKd
1,"RHTTSTETAV [HPV30-E6, P36809]",below the threshold
2,"SSLQSLETSV [ATP2B4, P23634]",below the threshold
3,"QRQARSETLV [HPV59-E6, Q81964]",below the threshold

# Biological target: Q9P227
# Experiment: holdup assay
# Design: key: below the threshold = too weak to quantify, mostly under pKd 3.1 to 4
# Settings: plain residues with an end cap or a label only (N-terminal biotin on a linker: ttds)
row,Binder,pKd
1,"RHTTSTETAV [HPV30-E6, P36809]",below the threshold
2,"SSLQSLETSV [ATP2B4, P23634]",below the threshold
3,"QRQARSETLV [HPV59-E6, Q81964]",below the threshold

# Biological target: Q9NPB6
# Experiment: holdup assay
# Design: key: below the threshold = too weak to quantify, mostly under pKd 3.1 to 4
# Settings: plain residues with an end cap or a label only (N-terminal biotin on a linker: ttds)
row,Binder,pKd
1,"RHTTSTETAV [HPV30-E6, P36809]",below the threshold
2,"SSLQSLETSV [ATP2B4, P23634]",below the threshold
3,"QRQARSETLV [HPV59-E6, Q81964]",below the threshold

# Biological target: Q6ZWJ1
# Experiment: holdup assay
# Design: key: below the threshold = too weak to quantify, mostly under pKd 3.1 to 4
# Settings: plain residues with an end cap or a label only (N-terminal biotin on a linker: ttds)
row,Binder,pKd
1,"RHTTSTETAV [HPV30-E6, P36809]",below the threshold
2,"SSLQSLETSV [ATP2B4, P23634]",below the threshold
3,"QRQARSETLV [HPV59-E6, Q81964]",below the threshold

# Biological target: Q96JB8
# Experiment: holdup assay
# Design: key: below the threshold = too weak to quantify, mostly under pKd 3.1 to 4
# Settings: plain residues with an end cap or a label only (N-terminal biotin on a linker: ttds)
row,Binder,pKd
1,"RHTTSTETAV [HPV30-E6, P36809]",below the threshold
2,"SSLQSLETSV [ATP2B4, P23634]",below the threshold
3,"QRQARSETLV [HPV59-E6, Q81964]",below the threshold

# Biological target: Q13009
# Experiment: holdup assay
# Design: key: below the threshold = too weak to quantify, mostly under pKd 3.1 to 4
# Settings: plain residues with an end cap or a label only (N-terminal biotin on a linker: ttds)
row,Binder,pKd
1,"RHTTSTETAV [HPV30-E6, P36809]",below the threshold
2,"SSLQSLETSV [ATP2B4, P23634]",below the threshold
3,"QRQARSETLV [HPV59-E6, Q81964]",below the threshold

# Biological target: Q96SB3
# Experiment: holdup assay
# Design: key: below the threshold = too weak to quantify, mostly under pKd 3.1 to 4
# Settings: plain residues with an end cap or a label only (N-terminal biotin on a linker: ttds)
row,Binder,pKd
1,"RHTTSTETAV [HPV30-E6, P36809]",below the threshold
2,"SSLQSLETSV [ATP2B4, P23634]",below the threshold
3,"QRQARSETLV [HPV59-E6, Q81964]",below the threshold

# Biological target: O15021
# Experiment: holdup assay
# Design: key: below the threshold = too weak to quantify, mostly under pKd 3.1 to 4
# Settings: plain residues with an end cap or a label only (N-terminal biotin on a linker: ttds)
row,Binder,pKd
1,"RHTTSTETAV [HPV30-E6, P36809]",below the threshold
2,"SSLQSLETSV [ATP2B4, P23634]",below the threshold
3,"QRQARSETLV [HPV59-E6, Q81964]",below the threshold

# Biological target: Q8TB45
# Experiment: holdup assay
# Design: key: below the threshold = too weak to quantify, mostly under pKd 3.1 to 4
# Settings: plain residues with an end cap or a label only (N-terminal biotin on a linker: ttds)
row,Binder,pKd
1,"RHTTSTETAV [HPV30-E6, P36809]",below the threshold
2,"SSLQSLETSV [ATP2B4, P23634]",below the threshold
3,"QRQARSETLV [HPV59-E6, Q81964]",below the threshold

# Biological target: Q9C0E4
# Experiment: holdup assay
# Design: key: below the threshold = too weak to quantify, mostly under pKd 3.1 to 4
# Settings: plain residues with an end cap or a label only (N-terminal biotin on a linker: ttds)
row,Binder,pKd
1,"RHTTSTETAV [HPV30-E6, P36809]",below the threshold
2,"SSLQSLETSV [ATP2B4, P23634]",below the threshold
3,"QRQARSETLV [HPV59-E6, Q81964]",below the threshold

# Biological target: Q96HC4
# Experiment: holdup assay
# Design: key: below the threshold = too weak to quantify, mostly under pKd 3.1 to 4
# Settings: plain residues with an end cap or a label only (N-terminal biotin on a linker: ttds)
row,Binder,pKd
1,"RHTTSTETAV [HPV30-E6, P36809]",below the threshold
2,"SSLQSLETSV [ATP2B4, P23634]",below the threshold
3,"QRQARSETLV [HPV59-E6, Q81964]",below the threshold
